The FLAb antibody collection (doi:10.7554/elife.23156)

B1: scFv; the commonest letter at each place (parent)
chain 1: EVKLDETGGGLVQPGRPMKLSCVASGFTFSDYWMNWVRQSPEKGLEWVAQIRNKPYNYETYYSDSVKGRFTISRDDSKSSVYLQMNNLRVEDMGIYYCTGSYYGMDYWGQGTSVTVS
chain 2: DVVMTQTPLSLPVSLGDQASISCRSSQSLVHSNGNTYLRWYLQKPGQSPKVLIYKVSNRFSGVPDRFSGSGSGTDFTLKISRVEAEDLGVYFCSQSTHVPWTFGGGTKLEIK

How the values were obtained:
[1] = variants of: B1; assay: Kd (Tite-Seq); details: with fluorescein; format: scFv 4-4-20, heavy + light
[2] = variants of: B1; assay: yeast surface expression (ratio to wild type); higher = more expressed; details: format: scFv 4-4-20, heavy + light

Kd [1] [µM]	Variant	yeast surface expression [2]
≥ 10	chain 1 F29V N35V	0.239
≥ 10	chain 1 F29Y N35A	0.842
3.55	chain 1 T28A Y32K	1.02
≥ 10	chain 1 F29I W33H	0.763
1.47	chain 1 S30G W36S	0.275
0.00468	chain 1 T28N D31C	0.826
0.0158	chain 1 W108S	0.51
≥ 10	chain 1 S101Y Y102N D106Y	0.501
≥ 10	chain 1 G100P G109S	0.485
≥ 10	chain 1 S101R Y107C	0.286
≥ 10	chain 1 S101R Y107I	0.812
≥ 10	chain 1 S101R Y107L	0.862
0.00251	chain 1 F29H N35V	2.76
≥ 10	chain 1 G100F G109N	0.41
≥ 10	chain 1 T28Y Y32K	0.818
≥ 10	chain 1 Y107E W108E	0.485
≥ 10	chain 1 Y103L G104Y	0.604
0.424	chain 1 T28C S30I	0.651
≥ 10	chain 1 Y32C N35M	0.536
0.0102	chain 1 T28L V37Q	0.731
≥ 10	chain 1 G104N D106W	0.316
7.33	chain 1 W33Q W36S	0.839
≥ 10	chain 1 Y32G M34E	0.194
≥ 10	chain 1 Y32G M34N	0.613

Kd [1] [µM]	Variant	yeast surface expression [2]
≥ 10	chain 1 M34P V37T	0.323
≥ 10	chain 1 Y107K W108Q	0.659
0.000891	chain 1 T28L S30R	0.99
0.00184	chain 1 T28L S30Y	0.738
0.0808	chain 1 M105Q D106S	1.17
≥ 10	chain 1 S101E Y102Q W108C	0.541
≥ 10	chain 1 Y32P	0.908
≥ 10	chain 1 W33P	0.803
≥ 10	chain 1 G104I W108D	0.236
≥ 10	chain 1 G104F W108I	0.146
≥ 10	chain 1 Y103D Y107C	0.646
≥ 10	chain 1 Y102W G109P	0.245
≥ 10	chain 1 G104A M105E	0.648
≥ 10	chain 1 G100V Y107M	0.726
≥ 10	chain 1 S101P Y102V W108C	0.1
≥ 10	chain 1 Y107S G109C	0.174
1.63	chain 1 F29N M34H	0.665
6.96	chain 1 S30H M34C	0.623
≥ 10	chain 1 S30E M34T W36T	0.353
≥ 10	chain 1 D31V Y32P	0.759
≥ 10	chain 1 D106L G109H	0.0932
≥ 10	chain 1 S30R D31N W36A	0.32
≥ 10	chain 1 N35W	0.6
0.004	chain 1 D31S M34I	0.757

Kd [1] [µM]	Variant	yeast surface expression [2]
≥ 10	chain 1 W33C M34Q	0.755
≥ 10	chain 1 G100V W108N	0.468
≥ 10	chain 1 M34Q W36E	2.19
0.00371	chain 1 D31T	0.766
≥ 10	chain 1 Y32G V37P	0.972
9.5	chain 1 F29Q Y32C	1
≥ 10	chain 1 Y32R M34W V37M	0.728
≥ 10	chain 1 G100E G109Y	0.199
≥ 10	chain 1 G100A D106W	0.393
≥ 10	chain 1 Y102K Y103L G104F	0.545
≥ 10	chain 1 W33D M34W	1.03
0.00158	chain 1 S30A D31A V37C	0.739
≥ 10	chain 1 G104E D106A	0.657
≥ 10	chain 1 S30Y D31A N35A	0.451
≥ 10	chain 1 Y32Q M34I	0.765
≥ 10	chain 1 G100V Y103R G104L	0.88
0.00708	chain 1 T28Y S30L	0.792
≥ 10	chain 1 Y103C G109D	0.356
0.0107	chain 1 M34Y V37M	0.807
≥ 10	chain 1 G100Q Y103R D106L	0.235
≥ 10	chain 1 S101Y G104T	0.261
≥ 10	chain 1 M34E W36M	0.428
≥ 10	chain 1 F29C M34K W36I	0.425
≥ 10	chain 1 S30Y W33L	0.755

Kd [1] [µM]	Variant	yeast surface expression [2]
≥ 10	chain 1 F29D N35F W36G	0.644
≥ 10	chain 1 W33H V37F	0.859
≥ 10	chain 1 S30I Y32T	0.909
≥ 10	chain 1 D31C W36G	0.738
1.14	chain 1 V37L	0.782
≥ 10	chain 1 Y32S N35H	0.89
≥ 10	chain 1 M105A D106V	0.494
≥ 10	chain 1 D31P M34V	0.733
≥ 10	chain 1 Y102N W108D	0.259
≥ 10	chain 1 S101D D106N	0.813
≥ 10	chain 1 T28L M34D	0.101
0.000454	chain 1 T28V S30D	0.917
≥ 10	chain 1 D31F Y32V N35C	0.0993
≥ 10	chain 1 D31M Y32S	0.804
≥ 10	chain 1 M105G D106R	0.434
≥ 10	chain 1 W33Q N35W	1.01
≥ 10	chain 1 Y107D W108N	0.477
≥ 10	chain 1 S101M G104I	0.274
≥ 10	chain 1 Y102C M105P	0.69
≥ 10	chain 1 Y102D M105I	1.08
0.676	chain 1 F29I S30L	0.564
3.2	chain 1 G100A Y103K G109T	0.753
≥ 10	chain 1 G104V M105E	0.637
≥ 10	chain 1 F29R D31K	0.343

Kd [1] [µM]	Variant	yeast surface expression [2]
≥ 10	chain 1 F29R D31G	0.755
≥ 10	chain 1 S101H	0.737
≥ 10	chain 1 T28R W36S	0.272
≥ 10	chain 1 Y103W M105L G109W	0.199
0.00361	chain 1 D106N Y107F	0.715
0.0265	chain 1 F29S	0.933
≥ 10	chain 1 D106M	0.574
≥ 10	chain 1 D106V	0.734
≥ 10	chain 1 D106F	0.325
≥ 10	chain 1 Y103W D106T	0.875
≥ 10	chain 1 S30R N35R	0.535
1.72	chain 1 M105L Y107V	1.08
0.00194	chain 1 D31H Y32F	0.801
≤ 0.000316	chain 1 S30W D31N	0.866
≥ 10	chain 1 G100Y S101P	0.251
≥ 10	chain 1 D106R Y107D	0.462
0.0015	chain 1 Y102I Y103W	1.15
0.00785	chain 1 T28S V37S	0.757
0.0391	chain 1 Y32I W36P	0.723
≥ 10	chain 1 Y32I W36Y	0.612
